Reference: US20210179706A1
pEC50, pKd: −log10 of the molar value. Where “and” joins values, the source holds several entries; their conditions need not be identical. Identical values can stand only once. Like-named read-outs stand apart in the source and are kept apart here.

What was measured:
[1] = molecular target: human IL-1β-His-Bio (human) (UniProt P01584); experiment: ELISA, IL-1β-His-Bio captured on streptavidin; antibody 0.333 µg/mL
[2] = molecular target: human IL-1β-His-Bio (human) (UniProt P01584); experiment: ELISA, IL-1β-His-Bio captured on streptavidin; antibody 0.111 µg/mL
human IL-1β-his (human) = human IL-1β-his (human) (UniProt P01584); experiment: SPR (Biacore), antibody amine-coupled on CM5, IL-1β 1.56-25 nM as analyte
human IL-1β-hFc (human) [3] = molecular target: human IL-1β-hFc (human) (UniProt P01584); experiment: competition ELISA on coated IL-1β-hFc, competitor IL-1R1(1-332)-his (anti-His-HRP read-out); antibody 0.333 µg/mL
human IL-1β-hFc (human) [4] = molecular target: human IL-1β-hFc (human) (UniProt P01584); experiment: competition ELISA on coated IL-1β-hFc, competitor IL-1R1(1-332)-his (anti-His-HRP read-out); antibody 0.111 µg/mL
[5] = molecular target: human IL-1β-His-Bio (human) (UniProt P01584); experiment: ELISA, IL-1β-His-Bio captured on streptavidin; antibody 0.001 µg/mL
[6] = molecular target: human IL-1β-His-Bio (human) (UniProt P01584); experiment: ELISA, IL-1β-His-Bio captured on streptavidin; 4-parameter fit
human IL-1β-hFc (human) [7] = molecular target: human IL-1β-hFc (human) (UniProt P01584); experiment: competition ELISA on coated IL-1β-hFc, competitor IL-1R1(1-332)-his (anti-His-HRP read-out); antibody 0.001 µg/mL
human IL-1β-hFc (human) [8] = molecular target: human IL-1β-hFc (human) (UniProt P01584); experiment: competition ELISA on coated IL-1β-hFc, competitor IL-1R1(1-332)-his (anti-His-HRP read-out); antibody 1.000 µg/mL
[9] = molecular target: human IL-1β-His-Bio (human) (UniProt P01584); experiment: ELISA, IL-1β-His-Bio captured on streptavidin; antibody 0.004 µg/mL
[10] = molecular target: human IL-1β-His-Bio (human) (UniProt P01584); experiment: ELISA, IL-1β-His-Bio captured on streptavidin; antibody 0.333 µg/mL diluted 1:9
human IL-1β-hFc (human) [11] = molecular target: human IL-1β-hFc (human) (UniProt P01584); experiment: competition ELISA on coated IL-1β-hFc, competitor IL-1R1(1-332)-his (anti-His-HRP read-out); antibody 0.037 µg/mL
[12] = molecular target: human IL-1β-His-Bio (human) (UniProt P01584); experiment: ELISA, IL-1β-His-Bio captured on streptavidin; antibody 0.333 µg/mL diluted 1:729
human IL-1β-hFc (human) [13] = molecular target: human IL-1β-hFc (human) (UniProt P01584); experiment: competition ELISA on coated IL-1β-hFc, competitor IL-1R1(1-332)-his (anti-His-HRP read-out); antibody 0.037 µg/mL; remark: listed apart in the source
human IL-1β-hFc (human) [14] = molecular target: human IL-1β-hFc (human) (UniProt P01584); experiment: competition ELISA on coated IL-1β-hFc, competitor IL-1R1(1-332)-his (anti-His-HRP read-out); antibody 0.012 µg/mL
[15] = molecular target: human IL-1β-His-Bio (human) (UniProt P01584); experiment: ELISA, IL-1β-His-Bio captured on streptavidin; antibody 0.333 µg/mL; remark: listed apart in the source
[16] = molecular target: human IL-1β-His-Bio (human) (UniProt P01584); experiment: ELISA, IL-1β-His-Bio captured on streptavidin; antibody 0.037 µg/mL
human IL-1β-hFc (human) [17] = molecular target: human IL-1β-hFc (human) (UniProt P01584); experiment: competition ELISA on coated IL-1β-hFc, competitor IL-1R1(1-332)-his (anti-His-HRP read-out); antibody 0.333 µg/mL; remark: listed apart in the source
[18] = molecular target: human IL-1β-His-Bio (human) (UniProt P01584); experiment: ELISA, IL-1β-His-Bio captured on streptavidin; antibody 0.333 µg/mL diluted 1:81
human IL-1β-hFc (human) [19] = molecular target: human IL-1β-hFc (human) (UniProt P01584); experiment: competition ELISA on coated IL-1β-hFc, competitor IL-1R1(1-332)-his (anti-His-HRP read-out); antibody 0.012 µg/mL; remark: listed apart in the source
human IL-1β-hFc (human) [20] = molecular target: human IL-1β-hFc (human) (UniProt P01584); experiment: competition ELISA on coated IL-1β-hFc, competitor IL-1R1(1-332)-his (anti-His-HRP read-out); antibody 0.001 µg/mL; remark: listed apart in the source
human IL-1β-hFc (human) [21] = molecular target: human IL-1β-hFc (human) (UniProt P01584); experiment: competition ELISA on coated IL-1β-hFc, competitor IL-1R1(1-332)-his (anti-His-HRP read-out); antibody 0.004 µg/mL
human IL-1β-hFc (human) [22] = molecular target: human IL-1β-hFc (human) (UniProt P01584); experiment: competition ELISA on coated IL-1β-hFc, competitor IL-1R1(1-332)-his; 4-parameter fit
[23] = molecular target: human IL-1β-His-Bio (human) (UniProt P01584); experiment: ELISA, IL-1β-His-Bio captured on streptavidin; antibody 0.333 µg/mL diluted 1:3
[24] = molecular target: human IL-1β-His-Bio (human) (UniProt P01584); experiment: ELISA, IL-1β-His-Bio captured on streptavidin; antibody 0.333 µg/mL diluted 1:243
[25] = molecular target: human IL-1β-His-Bio (human) (UniProt P01584); experiment: ELISA, IL-1β-His-Bio captured on streptavidin; antibody 1 µg/mL
human IL-1β-hFc (human) [26] = molecular target: human IL-1β-hFc (human) (UniProt P01584); experiment: competition ELISA on coated IL-1β-hFc, competitor IL-1R1(1-332)-his (anti-His-HRP read-out); antibody 0.111 µg/mL; remark: listed apart in the source
[27] = molecular target: human IL-1β-His-Bio (human) (UniProt P01584); experiment: ELISA, IL-1β-His-Bio captured on streptavidin; 4-parameter fit; remark: listed apart in the source
[28] = molecular target: human IL-1β-His-Bio (human) (UniProt P01584); experiment: ELISA, IL-1β-His-Bio captured on streptavidin; antibody 0.333 µg/mL diluted 1:27
human IL-1β-hFc (human) [29] = molecular target: human IL-1β-hFc (human) (UniProt P01584); experiment: competition ELISA on coated IL-1β-hFc, competitor IL-1R1(1-332)-his; 4-parameter fit; remark: listed apart in the source
[30] = molecular target: human IL-1β-His-Bio (human) (UniProt P01584); experiment: ELISA, IL-1β-His-Bio captured on streptavidin; antibody 0.012 µg/mL
human IL-1β-hFc (human) [31] = molecular target: human IL-1β-hFc (human) (UniProt P01584); experiment: competition ELISA on coated IL-1β-hFc, competitor IL-1R1(1-332)-his (anti-His-HRP read-out); antibody 0.004 µg/mL; remark: listed apart in the source
human IL-1β-hFc (human) [32] = molecular target: human IL-1β-hFc (human) (UniProt P01584); experiment: competition ELISA on coated IL-1β-hFc, competitor IL-1R1(1-332)-his (anti-His-HRP read-out); antibody 1.000 µg/mL; remark: listed apart in the source

## canakinumab (trade name Ilaris) (antibody)
[1]
  OD (450 nm): 2.9 OD450 and 2.88 OD450
[2]
  OD (450 nm): 2.9 OD450 and 2.89 OD450
Human IL-1β-his (human)
  pKd: 10.01
Human IL-1β-hFc (human) [3]
  OD (450 nm) of blocking assay: 0.059 OD450 and 0.057 OD450
Human IL-1β-hFc (human) [4]
  OD (450 nm) of blocking assay: 0.091 OD450 and 0.092 OD450
[5]
  OD (450 nm): 0.581 OD450 and 0.559 OD450
[6]
  pEC50: 10.24
Human IL-1β-hFc (human) [7]
  OD (450 nm) of blocking assay: 0.577 OD450 and 0.72 OD450
Human IL-1β-hFc (human) [8]
  OD (450 nm) of blocking assay: 0.093 OD450 and 0.088 OD450
[9]
  OD (450 nm): 1.26 OD450 and 1.2 OD450
[10]
  OD (450 nm): 2.46 OD450 and 2.61 OD450
Human IL-1β-hFc (human) [11]
  OD (450 nm) of blocking assay: 0.366 OD450 and 0.379 OD450
[12]
  OD (450 nm): 0.315 OD450
Human IL-1β-hFc (human) [13]
  OD (450 nm) of blocking assay: 0.736 OD450 and 0.705 OD450
Human IL-1β-hFc (human) [14]
  OD (450 nm) of blocking assay: 0.572 OD450 and 0.579 OD450
[15]
  OD (450 nm): 2.81 OD450 and 2.94 OD450
[16]
  OD (450 nm): 2.64 OD450 and 2.68 OD450
Human IL-1β-hFc (human) [17]
  OD (450 nm) of blocking assay: 0.104 OD450 and 0.126 OD450
[18]
  OD (450 nm): 0.852 OD450 and 1.11 OD450
Human IL-1β-hFc (human) [19]
  OD (450 nm) of blocking assay: 0.797 OD450 and 0.706 OD450
Human IL-1β-hFc (human) [20]
  OD (450 nm) of blocking assay: 0.738 OD450 and 0.559 OD450
Human IL-1β-hFc (human) [21]
  OD (450 nm) of blocking assay: 0.765 OD450 and 0.735 OD450
Human IL-1β-hFc (human) [22]
  pEC50: 9.59
[23]
  OD (450 nm): 2.68 OD450 and 2.88 OD450
[24]
  OD (450 nm): 0.408 OD450 and 0.573 OD450
[25]
  OD (450 nm): 2.87 OD450
Human IL-1β-hFc (human) [26]
  OD (450 nm) of blocking assay: 0.519 OD450 and 0.526 OD450
[27]
  pEC50: 10.41
[28]
  OD (450 nm): 1.7 OD450 and 1.96 OD450
Human IL-1β-hFc (human) [29]
  pEC50: 9.02
[30]
  OD (450 nm): 2.06 OD450 and 2.12 OD450
Human IL-1β-hFc (human) [31]
  OD (450 nm) of blocking assay: 0.727 OD450 and 0.684 OD450
Human IL-1β-hFc (human) [32]
  OD (450 nm) of blocking assay: 0.053 OD450 and 0.052 OD450
